Experimental data published in patent US20180140673A1.

Tests used:
[1] = target: FGF receptor/BKL complex on HEK293 cells overexpressing human beta-klotho (BKL) (human) (UniProt Q86Z14); test: cell-based or functional assay
[2] = target: FGFR1c receptor/BKL complex on differentiated mouse 3T3-L1 adipocytes (mouse) (UniProt P16092); test: cell-based or functional assay
FGFR1c receptor/BKL complex on differentiated mouse 3T3-L1 adipocytes (mouse), sequence (P16092 22-822, chain 1 of 2): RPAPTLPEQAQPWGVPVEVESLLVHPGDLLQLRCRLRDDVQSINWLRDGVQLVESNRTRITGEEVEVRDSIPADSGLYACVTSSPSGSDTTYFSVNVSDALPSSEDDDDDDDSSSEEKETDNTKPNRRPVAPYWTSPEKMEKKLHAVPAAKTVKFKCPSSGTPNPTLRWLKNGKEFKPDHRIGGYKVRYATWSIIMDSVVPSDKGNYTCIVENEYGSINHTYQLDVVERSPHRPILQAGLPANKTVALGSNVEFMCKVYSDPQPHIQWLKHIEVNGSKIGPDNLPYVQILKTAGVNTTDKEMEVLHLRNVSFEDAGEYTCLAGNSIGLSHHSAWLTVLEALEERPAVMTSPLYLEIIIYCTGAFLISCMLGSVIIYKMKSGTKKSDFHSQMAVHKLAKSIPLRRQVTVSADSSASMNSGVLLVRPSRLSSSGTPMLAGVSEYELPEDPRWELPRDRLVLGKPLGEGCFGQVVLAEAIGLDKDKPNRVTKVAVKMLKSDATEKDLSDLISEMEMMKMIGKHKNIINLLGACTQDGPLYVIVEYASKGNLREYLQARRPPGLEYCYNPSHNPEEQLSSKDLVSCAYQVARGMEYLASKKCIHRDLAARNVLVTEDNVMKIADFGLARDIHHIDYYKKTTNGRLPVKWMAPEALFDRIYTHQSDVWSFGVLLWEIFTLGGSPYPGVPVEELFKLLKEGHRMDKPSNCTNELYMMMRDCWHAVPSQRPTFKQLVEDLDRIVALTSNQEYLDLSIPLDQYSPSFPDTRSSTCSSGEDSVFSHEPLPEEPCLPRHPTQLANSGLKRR
FGFR1c receptor/BKL complex on differentiated mouse 3T3-L1 adipocytes (mouse), sequence (Q99N32 whole entry, chain 2 of 2, further chain): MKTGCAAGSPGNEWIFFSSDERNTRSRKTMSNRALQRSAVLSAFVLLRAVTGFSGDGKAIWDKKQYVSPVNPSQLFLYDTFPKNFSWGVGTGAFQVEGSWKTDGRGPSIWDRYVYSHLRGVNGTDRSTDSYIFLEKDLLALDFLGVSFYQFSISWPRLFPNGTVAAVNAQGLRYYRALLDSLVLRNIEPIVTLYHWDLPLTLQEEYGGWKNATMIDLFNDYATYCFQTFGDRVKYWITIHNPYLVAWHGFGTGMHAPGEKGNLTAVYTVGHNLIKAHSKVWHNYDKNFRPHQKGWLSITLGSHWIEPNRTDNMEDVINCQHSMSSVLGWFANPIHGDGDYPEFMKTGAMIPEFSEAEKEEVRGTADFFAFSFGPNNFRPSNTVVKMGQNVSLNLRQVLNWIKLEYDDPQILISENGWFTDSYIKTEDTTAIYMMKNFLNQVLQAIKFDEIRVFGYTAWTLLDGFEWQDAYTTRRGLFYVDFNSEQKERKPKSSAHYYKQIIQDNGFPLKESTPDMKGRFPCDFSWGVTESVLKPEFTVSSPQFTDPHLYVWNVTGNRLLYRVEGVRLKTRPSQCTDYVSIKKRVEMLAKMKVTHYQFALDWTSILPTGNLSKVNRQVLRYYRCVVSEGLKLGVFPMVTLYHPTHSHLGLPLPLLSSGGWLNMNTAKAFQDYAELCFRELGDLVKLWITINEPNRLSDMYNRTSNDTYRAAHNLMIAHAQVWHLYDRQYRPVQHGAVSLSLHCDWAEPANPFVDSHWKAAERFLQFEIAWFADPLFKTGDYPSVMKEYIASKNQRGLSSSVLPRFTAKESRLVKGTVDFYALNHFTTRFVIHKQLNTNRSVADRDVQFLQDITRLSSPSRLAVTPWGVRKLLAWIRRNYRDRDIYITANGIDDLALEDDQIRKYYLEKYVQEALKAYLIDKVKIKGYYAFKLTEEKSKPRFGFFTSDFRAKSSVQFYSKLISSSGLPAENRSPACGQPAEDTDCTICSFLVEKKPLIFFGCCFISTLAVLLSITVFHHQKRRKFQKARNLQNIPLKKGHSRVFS

S{Beta-180}-2-aminoethylsulfanyl-Ala[Gln121,Leu168,Cys180,des181]FGF21, sequence (Q9NSA1 other isoform, or with tags, fused parts or gaps limits assumed): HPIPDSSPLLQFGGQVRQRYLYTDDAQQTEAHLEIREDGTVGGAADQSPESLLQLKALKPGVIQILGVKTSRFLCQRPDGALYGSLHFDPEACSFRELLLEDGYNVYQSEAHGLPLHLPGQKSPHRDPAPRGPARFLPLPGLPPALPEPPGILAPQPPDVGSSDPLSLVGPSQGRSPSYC
FGF receptor/BKL complex on HEK293 cells overexpressing human beta-klotho (BKL) (human), sequence (Q86Z14 whole entry, one chain of several): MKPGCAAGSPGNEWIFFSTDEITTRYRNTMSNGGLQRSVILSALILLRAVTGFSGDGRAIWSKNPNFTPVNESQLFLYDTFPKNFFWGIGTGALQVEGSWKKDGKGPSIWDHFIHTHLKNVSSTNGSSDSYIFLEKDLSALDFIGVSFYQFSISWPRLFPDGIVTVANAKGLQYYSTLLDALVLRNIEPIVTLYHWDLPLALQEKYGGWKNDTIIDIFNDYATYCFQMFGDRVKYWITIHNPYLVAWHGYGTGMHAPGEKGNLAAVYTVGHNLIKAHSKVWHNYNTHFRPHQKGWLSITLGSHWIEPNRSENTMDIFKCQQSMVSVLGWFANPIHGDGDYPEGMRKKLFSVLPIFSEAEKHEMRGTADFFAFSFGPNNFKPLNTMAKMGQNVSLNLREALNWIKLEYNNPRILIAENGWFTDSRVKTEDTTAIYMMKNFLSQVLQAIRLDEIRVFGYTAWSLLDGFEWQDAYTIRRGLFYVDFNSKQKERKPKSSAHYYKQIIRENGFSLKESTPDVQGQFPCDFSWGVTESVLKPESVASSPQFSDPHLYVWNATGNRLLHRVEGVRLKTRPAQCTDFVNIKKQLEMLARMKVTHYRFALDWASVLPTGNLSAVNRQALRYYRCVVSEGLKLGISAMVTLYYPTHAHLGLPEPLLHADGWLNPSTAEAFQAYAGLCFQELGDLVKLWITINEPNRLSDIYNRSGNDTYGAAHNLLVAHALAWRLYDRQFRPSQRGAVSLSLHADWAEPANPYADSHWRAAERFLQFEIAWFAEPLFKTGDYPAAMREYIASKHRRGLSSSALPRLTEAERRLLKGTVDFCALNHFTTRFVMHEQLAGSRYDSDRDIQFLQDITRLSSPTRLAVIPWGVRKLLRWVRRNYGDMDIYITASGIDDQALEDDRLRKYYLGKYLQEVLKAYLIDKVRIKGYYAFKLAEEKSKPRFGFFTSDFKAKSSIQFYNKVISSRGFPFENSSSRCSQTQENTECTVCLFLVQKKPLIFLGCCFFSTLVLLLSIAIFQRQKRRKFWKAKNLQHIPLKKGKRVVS
S{Beta-178}-2-aminoethylsulfanyl-Ala[Gln121,Leu168,Cys178]FGF21, sequence (Q9NSA1 other isoform, or with tags, fused parts or gaps limits assumed): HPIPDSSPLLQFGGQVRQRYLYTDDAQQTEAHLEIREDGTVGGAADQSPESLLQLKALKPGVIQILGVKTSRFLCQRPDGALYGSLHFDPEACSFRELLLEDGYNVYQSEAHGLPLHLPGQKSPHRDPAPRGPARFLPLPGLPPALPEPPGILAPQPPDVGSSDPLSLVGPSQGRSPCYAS
S{Beta-179}-2-aminoethylsulfanyl-Ala[Gln121,Leu168,Cys179]FGF21, sequence (Q9NSA1 other isoform, or with tags, fused parts or gaps limits assumed): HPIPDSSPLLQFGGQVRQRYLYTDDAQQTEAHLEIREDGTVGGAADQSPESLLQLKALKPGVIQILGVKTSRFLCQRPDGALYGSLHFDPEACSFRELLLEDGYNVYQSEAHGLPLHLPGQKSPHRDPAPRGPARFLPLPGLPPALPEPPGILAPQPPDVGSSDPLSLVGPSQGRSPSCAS
Ala[Gln121,Leu168]FGF21, sequence (Q9NSA1 other isoform, or with tags, fused parts or gaps limits assumed): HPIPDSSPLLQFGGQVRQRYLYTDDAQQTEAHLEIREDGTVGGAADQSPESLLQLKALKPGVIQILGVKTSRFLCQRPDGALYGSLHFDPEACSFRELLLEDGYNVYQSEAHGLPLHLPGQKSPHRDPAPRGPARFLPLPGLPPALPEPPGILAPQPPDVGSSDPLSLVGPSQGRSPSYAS
S{Beta-176}-2-aminoethylsulfanyl-Ala[Gln121,Leu168,Cys176]FGF21, sequence (Q9NSA1 other isoform, or with tags, fused parts or gaps limits assumed): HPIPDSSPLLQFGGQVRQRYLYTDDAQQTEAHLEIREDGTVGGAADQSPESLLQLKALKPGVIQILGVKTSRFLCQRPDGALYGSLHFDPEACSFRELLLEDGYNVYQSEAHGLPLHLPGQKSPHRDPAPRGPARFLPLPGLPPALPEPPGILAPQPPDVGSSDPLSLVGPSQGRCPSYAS
S{Beta-180}-2-aminoethylsulfanyl-Ala[Gln121,Leu168,Cys180]FGF21, sequence (Q9NSA1 other isoform, or with tags, fused parts or gaps limits assumed): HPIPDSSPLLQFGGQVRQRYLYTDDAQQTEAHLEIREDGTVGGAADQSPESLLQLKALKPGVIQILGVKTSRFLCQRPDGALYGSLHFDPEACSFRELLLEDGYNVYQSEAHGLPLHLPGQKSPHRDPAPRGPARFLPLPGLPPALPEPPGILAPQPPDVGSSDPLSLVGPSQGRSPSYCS
Ala[Gln121,Leu168,Cys169]FGF21, sequence (Q9NSA1 other isoform, or with tags, fused parts or gaps limits assumed): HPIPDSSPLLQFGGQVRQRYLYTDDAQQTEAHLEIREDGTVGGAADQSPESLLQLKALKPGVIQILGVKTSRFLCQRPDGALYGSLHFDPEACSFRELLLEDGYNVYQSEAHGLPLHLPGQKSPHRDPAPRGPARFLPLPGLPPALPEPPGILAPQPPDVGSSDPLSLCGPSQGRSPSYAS
Ala[Gln121,Leu168,Cys172]FGF21, sequence (Q9NSA1 other isoform, or with tags, fused parts or gaps limits assumed): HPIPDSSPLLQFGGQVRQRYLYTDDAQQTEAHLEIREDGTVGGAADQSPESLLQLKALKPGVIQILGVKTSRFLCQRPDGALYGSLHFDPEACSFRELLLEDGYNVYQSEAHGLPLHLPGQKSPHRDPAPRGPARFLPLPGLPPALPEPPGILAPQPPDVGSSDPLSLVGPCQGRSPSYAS
Ala[Gln121,Leu168,Cys177]FGF21, sequence (Q9NSA1 other isoform, or with tags, fused parts or gaps limits assumed): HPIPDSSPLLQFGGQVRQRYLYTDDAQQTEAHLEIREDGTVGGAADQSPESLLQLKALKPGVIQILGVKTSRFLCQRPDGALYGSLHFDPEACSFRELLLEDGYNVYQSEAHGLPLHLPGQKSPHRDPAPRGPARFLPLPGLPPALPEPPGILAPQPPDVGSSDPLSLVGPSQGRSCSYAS
Ala[Gln121,Leu168,Cys174]FGF21, sequence (Q9NSA1 other isoform, or with tags, fused parts or gaps limits assumed): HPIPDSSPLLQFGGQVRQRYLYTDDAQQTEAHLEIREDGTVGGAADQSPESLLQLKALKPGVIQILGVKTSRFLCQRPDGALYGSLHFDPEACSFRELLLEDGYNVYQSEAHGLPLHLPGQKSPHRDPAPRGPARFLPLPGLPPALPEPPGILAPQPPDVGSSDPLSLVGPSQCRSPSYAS
Ala[Gln121,Leu168,Cys175]FGF21, sequence (Q9NSA1 other isoform, or with tags, fused parts or gaps limits assumed): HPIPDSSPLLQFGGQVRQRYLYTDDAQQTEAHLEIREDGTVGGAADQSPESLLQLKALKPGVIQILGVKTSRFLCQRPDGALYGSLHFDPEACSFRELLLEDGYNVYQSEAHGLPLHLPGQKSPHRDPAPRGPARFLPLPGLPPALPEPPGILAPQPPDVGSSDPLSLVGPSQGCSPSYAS

## 20-[[(1S)-4-[[(1S)-4-[2-[2-[2-[2-[2-[2-[[(1S)-5-acetamido-1-carboxy-pentyl]amino]-2-oxo-ethoxy]ethoxy]ethylamino]-2-oxo-ethoxy]ethoxy]ethylamino]-1-carboxy-4-oxo-butyl]amino]-1-carboxy-4-oxo-butyl]amino]-20-oxo-icosanoic acid-Ala[Gln121,Leu168,Cys180]FGF21 (from UniProt Q9NSA1 29-209) (ligand)
[1]
  EC50 (0.1% HSA) (nM), pERK, HEK293/BKL cells: 65.5 nM
  EC50 (nM), pERK, HEK293/BKL cells: 10.3 nM

## (2S)-6-acetamido-2-[[2-[2-[2-[[2-[2-[2-[[(4S)-4-carboxy-4-(16-sulfohexadecanoylamino)butanoyl]amino]ethoxy]ethoxy]acetyl]amino]ethoxy]ethoxy]acetyl]amino]hexadecanoic acid-Ala[Gln121,Leu168,Cys180]FGF21 (from UniProt Q9NSA1 29-209) (ligand)
[1]
  EC50 (0.1% HSA) (nM), pERK, HEK293/BKL cells: 7.1 nM
  EC50 (nM), pERK, HEK293/BKL cells: 4.2 nM

## Ala[Gln121,Cys167,Leu168,]FGF21 (from UniProt Q9NSA1 29-209) (ligand)
[1]
  EC50 (nM), pERK, HEK293/BKL cells: 4 nM

## Ala[Gln121,Cys168]FGF21 (from UniProt Q9NSA1 29-209) (ligand)
[1]
  EC50 (nM), pERK, HEK293/BKL cells: 492 nM

## Ala[Gln121,Leu168,Cys169]FGF21 (from UniProt Q9NSA1 29-209) (ligand)
[1]
  EC50 (nM), pERK, HEK293/BKL cells: 22 nM

## Ala[Gln121,Leu168,Cys170]FGF21 (from UniProt Q9NSA1 29-209) (ligand)
[1]
  EC50 (nM), pERK, HEK293/BKL cells: 7 nM

## Ala[Gln121,Leu168,Cys172]FGF21 (from UniProt Q9NSA1 29-209) (ligand)
[1]
  EC50 (nM), pERK, HEK293/BKL cells: 5 nM

## Ala[Gln121,Leu168,Cys173]FGF21 (from UniProt Q9NSA1 29-209) (ligand)
[1]
  EC50 (nM), pERK, HEK293/BKL cells: 4 nM

## Ala[Gln121,Leu168,Cys174]FGF21 (from UniProt Q9NSA1 29-209) (ligand)
[1]
  EC50 (nM), pERK, HEK293/BKL cells: 5 nM

## Ala[Gln121,Leu168,Cys175]FGF21 (from UniProt Q9NSA1 29-209) (ligand)
[1]
  EC50 (nM), pERK, HEK293/BKL cells: 11 nM

## Ala[Gln121,Leu168,Cys177]FGF21 (from UniProt Q9NSA1 29-209) (ligand)
[1]
  EC50 (nM), pERK, HEK293/BKL cells: 416 nM

## Ala[Gln121,Leu168]FGF21 (from UniProt Q9NSA1 29-209) (ligand)
[2]
  Glucose uptake EC50 (nM), 3T3-L1 adipocytes: 3.1 nM
  Glucose uptake Emax (%), 3T3-L1 adipocytes: 85%
[1]
  EC50 (nM), pERK, HEK293/BKL cells: 2 nM

## S{Beta-168}-[2-[2-[[2-[2-[2-[[2-[2-[2-[[(4S)-4-carboxy-4-(13-carboxytridecanoyl-amino)butanoyl]amino]ethoxy]ethoxy]acetyl]amino]ethoxy]ethoxy]acetyl]amino]-ethylamino]-2-oxoethyl]-Ala[Gln121,Cys168]FGF21 (from UniProt Q9NSA1 29-209) (ligand)
[1]
  EC50 (0.1% HSA) (nM), pERK, HEK293/BKL cells: 4260 nM
  EC50 (nM), pERK, HEK293/BKL cells: 667 nM

## S{Beta-169}-[2-[2-[[2-[2-[2-[[2-[2-[2-[[(4S)-4-carboxy-4-(15-carboxypentadecanoyl-amino)butanoyl]amino]ethoxy]ethoxy]acetyl]amino]ethoxy]ethoxy]acetyl]amino]-ethylamino]-2-oxoethyl]-Ala[Gln121,Leu168,Cys169]FGF21 (from UniProt Q9NSA1 29-209) (ligand)
[1]
  EC50 (0.1% HSA) (nM), pERK, HEK293/BKL cells: 20 nM
  EC50 (nM), pERK, HEK293/BKL cells: 25 nM

## S{Beta-173}-[2-[2-[[2-[2-[2-[[2-[2-[2-[[(4S)-4-carboxy-4-(15-carboxypentadecanoyl-amino)butanoyl]amino]ethoxy]ethoxy]acetyl]amino]ethoxy]ethoxy]acetyl]amino]-ethylamino]-2-oxoethyl]-Ala[Gln121,Leu168,Cys173]FGF21 (from UniProt Q9NSA1 29-209) (ligand)
[1]
  EC50 (0.1% HSA) (nM), pERK, HEK293/BKL cells: 4 nM
  EC50 (nM), pERK, HEK293/BKL cells: 3 nM

## S{Beta-174}-[2-[2-[[2-[2-[2-[[2-[2-[2-[[(4S)-4-carboxy-4-(13-carboxytridecanoyl-amino)butanoyl]amino]ethoxy]ethoxy]acetyl]amino]ethoxy]ethoxy]acetyl]amino]-ethylamino]-2-oxoethyl]-Ala[Gln121,Leu168,Cys174]FGF21 (from UniProt Q9NSA1 29-209) (ligand)
[1]
  EC50 (0.1% HSA) (nM), pERK, HEK293/BKL cells: 4 nM
  EC50 (nM), pERK, HEK293/BKL cells: 4 nM

## S{Beta-175}-[2-[2-[[2-[2-[2-[[2-[2-[2-[[(4S)-4-carboxy-4-(15-carboxypentadecanoyl-amino)butanoyl]amino]ethoxy]ethoxy]acetyl]amino]ethoxy]ethoxy]acetyl]amino]-ethylamino]-2-oxoethyl]-Ala[Gln121,Leu168,Cys175]FGF21 (from UniProt Q9NSA1 29-209) (ligand)
[1]
  EC50 (0.1% HSA) (nM), pERK, HEK293/BKL cells: 1 nM
  EC50 (nM), pERK, HEK293/BKL cells: 1 nM

## S{Beta-176}-2-aminoethylsulfanyl-Ala[Gln121,Leu168,Cys176]FGF21 (from UniProt Q9NSA1 29-209) (ligand)
[2]
  Glucose uptake EC50 (nM), 3T3-L1 adipocytes: 73 nM
  Glucose uptake Emax (%), 3T3-L1 adipocytes: 84%
[1]
  EC50 (nM), pERK, HEK293/BKL cells: 227 nM

## S{Beta-176}-[2-[2-[[2-[2-[2-[[2-[2-[2-[[(4S)-4-carboxy-4-(15-carboxypentadecanoyl-amino)butanoyl]amino]ethoxy]ethoxy]acetyl]amino]ethoxy]ethoxy]acetyl]amino]-ethylamino]-2-oxoethyl]-Ala[Gln121,Leu168,Cys176]FGF21 (from UniProt Q9NSA1 29-209) (ligand)
[1]
  EC50 (0.1% HSA) (nM), pERK, HEK293/BKL cells: 373 nM
  EC50 (nM), pERK, HEK293/BKL cells: 214 nM

## S{Beta-178}-2-aminoethylsulfanyl-Ala[Gln121,Leu168,Cys178]FGF21 (from UniProt Q9NSA1 29-209) (ligand)
[2]
  Glucose uptake EC50 (nM), 3T3-L1 adipocytes: 50 nM
  Glucose uptake Emax (%), 3T3-L1 adipocytes: 69%
[1]
  EC50 (nM), pERK, HEK293/BKL cells: 105 nM

## S{Beta-179}-2-aminoethylsulfanyl-Ala[Gln121,Leu168,Cys179]FGF21 (from UniProt Q9NSA1 29-209) (ligand)
[2]
  Glucose uptake EC50 (nM), 3T3-L1 adipocytes: 25 nM
  Glucose uptake Emax (%), 3T3-L1 adipocytes: 77%
[1]
  EC50 (nM), pERK, HEK293/BKL cells: 69 nM

## S{Beta-179}-[2-[2-[[2-[2-[2-[[2-[2-[2-[[(4S)-4-carboxy-4-(15-carboxypentadecanoyl-amino)butanoyl]amino]ethoxy]ethoxy]acetyl]amino]ethoxy]ethoxy]acetyl]amino]-ethylamino]-2-oxoethyl]-Ala[Gln121,Leu168,Cys179]FGF21 (from UniProt Q9NSA1 29-209) (ligand)
[2]
  Glucose uptake EC50 (nM), 3T3-L1 adipocytes: 107 nM
  Glucose uptake Emax (%), 3T3-L1 adipocytes: 54%
[1]
  EC50 (0.1% HSA) (nM), pERK, HEK293/BKL cells: 134 nM
  EC50 (nM), pERK, HEK293/BKL cells: 107 nM

## S{Beta-180}-2-aminoethylsulfanyl-Ala[Gln121,Leu168,Cys180,des181]FGF21 (from UniProt Q9NSA1 29-207) (ligand)
[2]
  Glucose uptake EC50 (nM), 3T3-L1 adipocytes: 73 nM
  Glucose uptake Emax (%), 3T3-L1 adipocytes: 72%
[1]
  EC50 (nM), pERK, HEK293/BKL cells: 20 nM

## S{Beta-180}-2-aminoethylsulfanyl-Ala[Gln121,Leu168,Cys180]FGF21 (from UniProt Q9NSA1 29-209) (ligand)
[2]
  Glucose uptake EC50 (nM), 3T3-L1 adipocytes: 2.6 nM
  Glucose uptake Emax (%), 3T3-L1 adipocytes: 102%
[1]
  EC50 (nM), pERK, HEK293/BKL cells: 2.3 nM

## S{Beta-180}-[2-[2-[[2-[2-[2-[[2-[2-[2-[[(4S)-4-carboxy-4-(11-carboxyundecanoyl-amino)butanoyl]amino]ethoxy]ethoxy]acetyl]amino]ethoxy]ethoxy]acetyl]amino]-ethylamino]-2-oxoethyl]-Ala[Gln121,Leu168,Cys180]FGF21 (from UniProt Q9NSA1 29-209) (ligand)
[2]
  Glucose uptake EC50 (nM), 3T3-L1 adipocytes: 2.7 nM
  Glucose uptake Emax (%), 3T3-L1 adipocytes: 87%
[1]
  EC50 (0.1% HSA) (nM), pERK, HEK293/BKL cells: 4 nM
  EC50 (nM), pERK, HEK293/BKL cells: 7 nM

## S{Beta-180}-[2-[2-[[2-[2-[2-[[2-[2-[2-[[(4S)-4-carboxy-4-(13-carboxytridecanoyl-amino)butanoyl]amino]ethoxy]ethoxy]acetyl]amino]ethoxy]ethoxy]acetyl]amino]-ethylamino]-2-oxoethyl]-Ala[Gln121,Leu168,Cys180]FGF21 (from UniProt Q9NSA1 29-209) (ligand)
[2]
  Glucose uptake EC50 (nM), 3T3-L1 adipocytes: 6.7 nM
  Glucose uptake Emax (%), 3T3-L1 adipocytes: 106%
[1]
  EC50 (0.1% HSA) (nM), pERK, HEK293/BKL cells: 6 nM
  EC50 (nM), pERK, HEK293/BKL cells: 6 nM

## S{Beta-180}-[2-[2-[[2-[2-[2-[[2-[2-[2-[[(4S)-4-carboxy-4-(15-carboxypentadecanoyl-amino)butanoyl]amino]ethoxy]ethoxy]acetyl]amino]ethoxy]ethoxy]acetyl]amino]-ethylamino]-2-oxoethyl]-Ala[Gln121,Leu168,Cys180]FGF21 (from UniProt Q9NSA1 29-209) (ligand)
[2]
  Glucose uptake EC50 (nM), 3T3-L1 adipocytes: 9.1 nM
  Glucose uptake Emax (%), 3T3-L1 adipocytes: 98%
[1]
  EC50 (0.1% HSA) (nM), pERK, HEK293/BKL cells: 6 nM
  EC50 (nM), pERK, HEK293/BKL cells: 4 nM

## S{Beta-180}-[2-[2-[[2-[2-[2-[[2-[2-[2-[[(4S)-4-carboxy-4-(17-carboxyheptadecanoyl-amino)butanoyl]amino]ethoxy]ethoxy]acetyl]amino]ethoxy]ethoxy]acetyl]amino]-ethylamino]-2-oxoethyl]-Ala[Gln121,Leu168,Cys180,des181]FGF21 (from UniProt Q9NSA1 29-207) (ligand)
[2]
  Glucose uptake EC50 (nM), 3T3-L1 adipocytes: 8 nM
  Glucose uptake Emax (%), 3T3-L1 adipocytes: 71%
[1]
  EC50 (0.1% HSA) (nM), pERK, HEK293/BKL cells: 20 nM
  EC50 (nM), pERK, HEK293/BKL cells: 8 nM

## S{Beta-180}-[2-[2-[[2-[2-[2-[[2-[2-[2-[[(4S)-4-carboxy-4-(17-carboxyheptadecanoyl-amino)butanoyl]amino]ethoxy]ethoxy]acetyl]amino]ethoxy]ethoxy]acetyl]amino]-ethylamino]-2-oxoethyl]-Ala[Gln121,Leu168,Cys180]FGF21 (from UniProt Q9NSA1 29-209) (ligand)
[2]
  Glucose uptake EC50 (nM), 3T3-L1 adipocytes: 32 nM
  Glucose uptake Emax (%), 3T3-L1 adipocytes: 109%
[1]
  EC50 (0.1% HSA) (nM), pERK, HEK293/BKL cells: 48 nM
  EC50 (nM), pERK, HEK293/BKL cells: 5 nM

## S{Beta-181}-[2-[2-[[2-[2-[2-[[2-[2-[2-[[(4S)-4-carboxy-4-(11-carboxyundecanoyl-amino)butanoyl]amino]ethoxy]ethoxy]acetyl]amino]ethoxy]ethoxy]acetyl]amino]-ethylamino]-2-oxoethyl]-Ala[Gln121,Leu168,Cys181]FGF21 (from UniProt Q9NSA1 29-208) (ligand)
[1]
  EC50 (0.1% HSA) (nM), pERK, HEK293/BKL cells: 137 nM
  EC50 (nM), pERK, HEK293/BKL cells: 154 nM
